Measurements: patent US20140030278A1

Assays:
[1] = biological target: Recombinant human TNF-alpha (human) (UniProt P01375); assay: ELISA of unbound rhTNF-alpha after pre-incubation; preparation 1; printed as 7.948e-009 g/ml; conditions: Fc fusion
[2] = biological target: Recombinant human TNF-alpha (human) (UniProt P01375); assay: ELISA of unbound rhTNF-alpha after pre-incubation; preparation 2; printed as 4.220e-009 g/ml; conditions: Fc fusion

Sequence of Recombinant human TNF-alpha (human) (P01375 77-233): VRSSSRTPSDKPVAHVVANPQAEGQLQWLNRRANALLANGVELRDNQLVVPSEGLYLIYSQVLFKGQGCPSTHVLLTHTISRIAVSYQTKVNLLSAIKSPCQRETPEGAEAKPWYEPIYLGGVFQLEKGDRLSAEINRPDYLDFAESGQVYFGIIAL

PEG20-etanercept (5 eq)
IC50 [1]: 7.95 ng/mL | IC50 [2]: 4.22 ng/mL
